According to PMC4417367:

Molecular target: EGFP-GR C683A, L687-690A (rat) (UniProt P06536)
Assay: co-IP

Substance: heat shock protein 90 (natural protein)
- percent decrease of the HSP90/GR ratio against wild type EGFP-GR: 62.7%
